From paper PMC10524356

Key:
[1] = target: HIV-2 Gag polyprotein in immature particles (HIV-2 ROD); experiment: cryo-EM structure
[2] = target: HIV-2 capsid (CA) protein carboxyl-terminal domain, CA residues 145-230 (HIV-2 ROD); experiment: crystal structure

Substance: HIV-2 Gag polyprotein in immature particles (natural protein)
- stoichiometry N [1]: 6

Substance: HIV-2 capsid (CA) protein carboxyl-terminal domain, CA residues 145-230 (domain or fragment)
- stoichiometry N [2]: 2
